What all share (experiment): two-hybrid; LexA-Cdc1 bait (pBTM116 or pBTM116BN) with Gal4 activation domain-Cdc27 prey (pGAD2F-Cdc27) in S. cerevisiae CTY10-5d; ONPG liquid culture beta-galactosidase assay, mean of triplicates, as percent of wild-type Cdc1
What all share (settings): partners not purified

For assay [1], the target named is T1, Cdc1-J6 (Schizosaccharomyces pombe, UniProt P87324 1-462, Tyr-GlyValProHisTyr-Gly).
T1 construct: Cdc1, S. pombe, with a pentapeptide inserted after residue 124; source: yeast two-hybrid fusion, in S. cerevisiae CTY10-5d
T1 sequence (looked up): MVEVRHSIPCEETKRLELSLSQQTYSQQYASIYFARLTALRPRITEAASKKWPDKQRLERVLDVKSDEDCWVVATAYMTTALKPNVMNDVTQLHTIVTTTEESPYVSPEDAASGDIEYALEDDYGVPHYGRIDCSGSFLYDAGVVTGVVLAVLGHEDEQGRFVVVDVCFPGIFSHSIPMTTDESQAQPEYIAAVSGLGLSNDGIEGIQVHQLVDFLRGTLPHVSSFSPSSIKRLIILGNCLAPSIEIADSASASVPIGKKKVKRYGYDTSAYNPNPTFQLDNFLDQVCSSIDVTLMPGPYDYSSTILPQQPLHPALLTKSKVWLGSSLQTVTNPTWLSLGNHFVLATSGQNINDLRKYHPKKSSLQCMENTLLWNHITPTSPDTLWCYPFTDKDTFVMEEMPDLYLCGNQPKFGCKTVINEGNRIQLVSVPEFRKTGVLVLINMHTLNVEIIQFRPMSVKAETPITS

Assay [2] deals with T2, Cdc1-E9 (Schizosaccharomyces pombe, UniProt P87324 1-462, Tyr-GlyGlyTyrProTyr-Gly).
T2 construct: Cdc1, S. pombe, with a pentapeptide inserted after residue 124; source: yeast two-hybrid fusion, in S. cerevisiae CTY10-5d
T2 sequence (looked up): T1 sequence (looked up) with V126G, P127Y, H128P

Assay [3] concerns the target T3, Cdc1-J9 (Schizosaccharomyces pombe, UniProt P87324 1-462, Met-ArgGlyThrProMet-Thr).
T3 construct: Cdc1, S. pombe, with a pentapeptide inserted after residue 174; source: yeast two-hybrid fusion, in S. cerevisiae CTY10-5d
T3 sequence (looked up): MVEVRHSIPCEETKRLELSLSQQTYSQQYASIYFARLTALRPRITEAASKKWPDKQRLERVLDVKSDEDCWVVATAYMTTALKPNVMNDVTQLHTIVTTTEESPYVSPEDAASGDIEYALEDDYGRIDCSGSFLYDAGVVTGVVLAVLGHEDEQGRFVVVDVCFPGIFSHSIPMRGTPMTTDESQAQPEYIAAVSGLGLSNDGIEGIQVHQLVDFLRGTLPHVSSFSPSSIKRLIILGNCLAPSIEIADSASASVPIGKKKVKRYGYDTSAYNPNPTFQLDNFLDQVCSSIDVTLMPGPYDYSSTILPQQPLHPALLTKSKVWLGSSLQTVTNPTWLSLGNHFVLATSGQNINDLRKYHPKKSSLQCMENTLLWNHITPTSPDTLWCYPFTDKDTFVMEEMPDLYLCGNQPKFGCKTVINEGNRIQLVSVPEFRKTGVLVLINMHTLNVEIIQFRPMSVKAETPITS

The target of assay [4] is T4, Cdc1-A3 (Schizosaccharomyces pombe, UniProt P87324 1-462, Asp296Ala).
T4 construct: Cdc1, S. pombe, point mutant; source: yeast two-hybrid fusion, in S. cerevisiae CTY10-5d
T4 sequence (looked up): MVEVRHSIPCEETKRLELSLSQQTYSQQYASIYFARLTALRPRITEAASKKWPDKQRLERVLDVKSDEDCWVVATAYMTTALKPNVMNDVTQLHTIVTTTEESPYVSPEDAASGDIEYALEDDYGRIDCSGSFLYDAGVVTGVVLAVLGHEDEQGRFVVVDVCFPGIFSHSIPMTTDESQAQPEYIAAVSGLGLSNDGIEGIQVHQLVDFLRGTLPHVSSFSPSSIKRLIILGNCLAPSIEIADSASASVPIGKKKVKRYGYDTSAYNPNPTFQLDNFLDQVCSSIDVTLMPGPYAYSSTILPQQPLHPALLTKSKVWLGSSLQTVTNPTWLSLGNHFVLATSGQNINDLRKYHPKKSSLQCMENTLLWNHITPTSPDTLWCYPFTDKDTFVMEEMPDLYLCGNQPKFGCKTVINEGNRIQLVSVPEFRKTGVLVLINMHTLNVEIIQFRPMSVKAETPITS

Substitutions are numbered along the chain they refer to. A value given as a limit tells only on which side of the number the result lay.

B1: Cdc27 (fission yeast DNA polymerase delta C-subunit) (natural protein, Schizosaccharomyces pombe, UniProt P30261 1-372, looked up)
chain: MEEWRNFLDIKVINESSLVTVDNLSLQLDISSEKAQEYLNMFYQGNDFLYPIYLIHGQPIDDEINLEIDEESQPISNFPVLQYILCDKSSLQEKQSRLKSGYKTVIFALSSAPLSDFDELLPAVYEIREKDVLYKKEDADKYGFIFNENSVPRVLKKAPSTHSPQLSVPSKTSTIDKTDTRSTEKTKGKDIFSNARNQKGNSSRKNKKAPLENHKEKEPLLPKEEKLSEQAKRERDDLKNIMQLEDESVSTTSVHDSEDDNLDSNNFQLEIGTEAKSAAPDEPQEIIKSVSGGKRRGKRKVKKYATTKDEEGFLVTKEEEVWESFSEDENISTGTSNVVRNKPTTVNIATKKKNTAQSKPQQKSIMSFFGKK
notes: DNA polymerase delta C-subunit Cdc27, S. pombe; prey plasmid pGAD2F-Cdc27; also called pGAD2F-Cdc27; source: yeast two-hybrid fusion, in S. cerevisiae CTY10-5d
For B1, the “two-hybrid beta-galactosidase activity, % of wild-type Cdc1” value in assay [1] is < 1%; in assay [2], < 1%; in assay [3] it was 102%; in assay [4], 23%.
